B1: N-terminal domain of clathrin (domain or fragment)
chain: MAQILPIRFQEHLQLQNLGINPANIGFSTLTMESDKFICIREKVGEQAQVVIIDMNDPSNPIRRPISADSAIMNPASKVIALKAGKTLQIFNIEMKSKMKAHTMTDDVTFWKWISLNTVALVTDNAVYHWSMEGESQPVKMFDRHSSLAGCQIINYRTDAKQKWLLLTGISAQQNRVVGAMQLYSVDRKVSQPIEGHAASFAQFKMEGNAEESTLFCFAVRGQAGGKLHIIEVGTPPTGNQPFPKKAVDVFFPPEAQNDFPVAMQISEKHDVVFLITKYGYIHLYDLETGTCIYMNRISGETIFVTAPHEATAGIIGVNRKGQVLSVCVEEENIIPYITNVLQNPDLALRMAVRNNLAGAEELF

How the values were obtained:
Assay in all cases: FP
[1] = target: B1
AP1B1 626-641 (Human) = target: AP1B1 626-641 (Human)
RdRp 1840-1855 (SVV) = target: RdRp 1840-1855 (SVV)
ARRB2 367-382 (Human) = target: ARRB2 367-382 (Human)
[2] = target: Nsp3_(1765-1780) (EEEV) peptide (Eastern equine encephalitis virus)
[3] = target: CEP55 binding peptide from ALIX (human, UniProt Q8WUM4)
[4] = target: Reston ebolavirus (REBOV) nucleoprotein (NP) peptide (Reston ebolavirus)
[5] = target: CEP55 binding peptide from TEX1 (human, UniProt Q8IWB6)
[6] = target: Rabies virus (RABV) protein P peptide (Rabies virus)
[7] = target: T1, C terminal domain of polyadenylate-binding protein 1 (human, UniProt P11940 544-623)
T1 chain: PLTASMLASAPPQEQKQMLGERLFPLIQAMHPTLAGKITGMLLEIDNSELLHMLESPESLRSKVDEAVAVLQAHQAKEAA

VP40 1-20 (SEBOV) = target: VP40 1-20 (SEBOV)
[8] = target: TSG101 binding peptide from ALIX (PDC6IP) (human, UniProt Q8WUM4)
[9] = target: NP (ZEBOV) peptide with the 466-YGEY-469 stretch (Zaire ebolavirus, UniProt P18272)
SYNRG 664-679 (Human) = target: SYNRG 664-679 (Human)
Nsp4 75-90 (BAV) = target: Nsp4 75-90 (BAV)
ACP2 407-422 (Human) = target: ACP2 407-422 (Human)
L (OLVV) = target: L (OLVV)
[10] = target: NP (ZEBOV) peptide with the 340-YQQL-343 sequence (Zaire ebolavirus, UniProt P18272)
EGFR 992-1007 (Human) = target: EGFR 992-1007 (Human)
[11] = target: T2, programmed cell death 6-interacting protein (ALIX) V domain (human)
T2 chain: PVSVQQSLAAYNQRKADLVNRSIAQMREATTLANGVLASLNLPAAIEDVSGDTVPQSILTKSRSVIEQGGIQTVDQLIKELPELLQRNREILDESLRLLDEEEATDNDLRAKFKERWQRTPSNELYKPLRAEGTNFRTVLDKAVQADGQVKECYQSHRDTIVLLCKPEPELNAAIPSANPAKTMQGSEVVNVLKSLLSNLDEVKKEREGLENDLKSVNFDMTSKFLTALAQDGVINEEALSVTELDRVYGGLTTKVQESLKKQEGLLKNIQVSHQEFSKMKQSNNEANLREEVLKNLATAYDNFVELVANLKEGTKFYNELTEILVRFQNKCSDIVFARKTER

M 26-41 (RABV) = target: M 26-41 (RABV)

With VDGAADLIDFSVPTDE [mu-NS_(705-720) (MRV1) peptide] as the binder, how does the Kd [1] read?
The Kd was 32 µM.

What does the source list for B1?
Kd (AP1B1 626-641 (Human)): 280 µM; Kd (RdRp 1840-1855 (SVV)): ~800 µM; Kd (ARRB2 367-382 (Human)): 39 µM; Kd [2]: 27 µM

B2: centrosomal protein of 55 kDa EABR domain (domain or fragment)
chain: FNSSINNIHEMEIQLKDALEKNQQWLVYDQQREVYVKGLLAKIFELEKKTETAAH
Which Kd [3] does the source give for B2 here?
The Kd was about 0.3 µM.

What about the Kd [4] of the same binder?
The Kd was 2.2 µM.

And the Kd [5]?
Its Kd is about 0.3 µM.

What about the Kd [6] of the same binder?
The Kd was 22 µM.

Which Kd [7] does the source give for MSKLSVNAPEFYPSGY [PABP-interacting protein 1 peptide PAIP1_(125-140)] here?
Its Kd is 1.6 µM.

Which Kd [7] does the source give for KSNLNPNAKEFVPGVK [PABP-interacting protein 2 peptide PAIP2_(108-123)] here?
The Kd was 0.16 µM.

B3: tumor susceptibility gene 101 protein UEV domain (domain or fragment)
chain: AVSESQLKKMVSKYKYRDLTVRETVNVITLYKDLKPVLDSYVFNDGSSRELMNLTGTIPVPYRGNTYNIPICLWLLDTYPYNPPICFVKPTSSMTIKTGKHVDANGKIYLPYLHEWKHPQSDLLGLIQVMIVVFGDEPPVFSRP
For B3, which Kd (VP40 1-20 (SEBOV)) is on record?
The Kd was 12 µM.

And the Kd [8]?
Its Kd is 150 µM.

Which Kd [7] does the source give for SAGLNPAAVPFVPKNQ [P/V/C_(183-198) (HeV) peptide] here?
The Kd was 2 µM.

B4: GAE domain of the ADP-ribosylation factor-binding protein GGA3 (domain or fragment)
chain: SSALPVTAYDKNGFRILFHFAKECPPGRPDVLVVVVSMLNTAPLPVKSIVLQAAVPKSMKVKLQPPSGTELSPFSPIQPPAAITQVMLLANPLKEKVRLRYKLTFALGEQLSTEVGEVDQFP
What does the source list for B4?
Kd [9]: 10 µM; Kd (SYNRG 664-679 (Human)): 11 µM

For NSMLNPNAVPFQPSPQ [N_(2-17) (BeV) peptide], which Kd [7] is on record?
The Kd was 2.7 µM.

B5: Mu homology domain (MHD) of the AP-2 subunit mu (domain or fragment)
chain: RNELFLDVLESVNLLMSPQGQVLSAHVSGRVVMKSYLSGMPECKFGMNDKIVIEKQGKGTADETSKSGKQSIAIDDCTFHQCVRLSKFDSERSISFIPPDGEFELMRYRTTKDIILPFRVIPLVREVGRTKLEVKVVIKSNFKPSLLAQKIEVRIPTPLNTSGVQVICMKGKAKYKASENAIVWKIKRMAGMKESQISAEIELLPTNDKKKWARPPISMNFEVPFAPSGLKVRYLKVFEPKLNYSDHDVIKWVRYIGRSGIYETR
B5 was tested. Which Kd (Nsp4 75-90 (BAV)) did it give?
Its Kd is 16 µM.

And the Kd (ACP2 407-422 (Human))?
Its Kd is 220 µM.

And the Kd (L (OLVV))?
The Kd was 11 µM.

What about the Kd [10] of the same binder?
Its Kd is 9.5 µM.

What about the Kd (EGFR 992-1007 (Human)) of the same binder?
The Kd was 2.4 µM.

HPLLNPSALEFNPSQT [N_(351-366) (HCoV 229E) peptide] was tested. Which Kd [7] did it give?
The Kd was 23 µM.

For TTGLNPTAVPFTLRNL [P/V/C_(183-198) (NiV) peptide], which Kd [7] is on record?
The Kd was 15 µM.

VDEEKGLYPNLKLTEPTAPMIHNYM [Nsp4_(118-142) (BAV) peptide] was tested. Which Kd [11] did it give?
Its Kd is 160 µM.

B6: VHS domain of the ADP-ribosylation factor-binding protein GGA3 (domain or fragment)
chain: ATNPSNRQEDWEYIIGFCDQINKELEGPQIAVRLLAHKIQSPQEWEALQALTVLEACMKNCGRRFHNEVGKFRFLNELIKVVSPKYLGDRVSEKVKTKVIELLYSWTMALPEEAKIKDAYHMLKRQGIVQS
With B6 as the binder, how does the Kd (M 26-41 (RABV)) read?
The Kd was 150 µM.
